The record followed here is publication PMC12744356.

The assay deals with EsxX glycine zipper peptide (EsxX 448-476), N-terminal biotin (Staphylococcus aureus (ST398)). Kind of assay: BLI; biotinylated peptide captured on streptavidin SAX biosensors (~1.0 nm); ExiABhis 50 uM to 1.6 uM in 2-fold dilutions in 10X Kinetics Buffer; association 180 s at 25 C; 1:1 kinetic model and steady-state model. For orientation: Biolayer interferometry detects binding as a change in optical thickness at a sensor tip.

A word on the Kd: it is the concentration at which binding is half-saturated. The stoichiometry N is the number of molecules, sites or subunits per partner or assembly. In turn, ExiA-ExiBhis dimer (complex) registered a Kd of 22 µM and a stoichiometry N of 1.
